# Paper PMC3021567, “Gene expression profiling of connective tissue growth factor (CTGF) stimulated primary human tenon fibroblasts reveals an inflammatory and wound healing response in vitro” (Molecular Vision, 2011)
# T1: recombinant human connective tissue growth factor (human, UniProt P29279 27-349)
# T1 construct: signal peptide in the construct; connective tissue growth factor (CTGF), human, cDNA for full-length rhCTGF aa 1-349, Swiss-Prot P29279; secreted into the supernatant of HEK293T cells; The purified protein runs as two bands, 36 kDa (unglycosylated) and 38 kDa (glycosylated); No tag is mentioned; also called hCTGF; rhCTGF
# T1 sequence (looked up): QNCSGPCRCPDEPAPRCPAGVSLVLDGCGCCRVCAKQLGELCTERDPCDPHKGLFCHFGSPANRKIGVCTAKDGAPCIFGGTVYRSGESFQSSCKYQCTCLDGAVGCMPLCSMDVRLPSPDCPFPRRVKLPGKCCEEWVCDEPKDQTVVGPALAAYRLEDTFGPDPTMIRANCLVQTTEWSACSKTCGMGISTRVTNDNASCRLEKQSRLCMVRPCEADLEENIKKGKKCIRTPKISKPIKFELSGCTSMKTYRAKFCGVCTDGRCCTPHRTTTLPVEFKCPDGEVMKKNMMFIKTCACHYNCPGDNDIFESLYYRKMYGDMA
# B1: bone morphogenetic protein 2 (ligand, UniProt P12643 283-396, looked up)
# chain: QAKHKQRKRLKSSCKRHPLYVDFSDVGWNDWIVAPPGYHAFYCHGECPFPLADHLNSTNHAIVQTLVNSVNSKIPKACCVPTELSAISMLYLDENEKVVLKNYQDMVVEGCGCR
# modifications: biotin (biotinylated BMP-2; site not stated)
# notes: bone morphogenetic protein 2 (BMP-2); also called BMP-2; source: expressed and purified as described [19]
# Biological target: T1, recombinant human connective tissue …
# Assay: SPR; BIACORE 2000; biotinylated BMP-2 immobilised on a streptavidin-coated CM5 chip at about 500 RU; CTGF flowed over at 10 ul/min, 25 °C; association 5 min, dissociation 3 min; regeneration with 4 M MgCl2; kinetic data fitted to a 1:1 Langmuir model; two independent experiments, at least six concentrations; apparent KD
# Conditions: both partners purified
binder,measurement,value
B1,Kd,400 nM
